{
  "source": "paper PMC10470591",
  "key": {"[1]": {"target": "Flag-tagged SisArnB (vWA domain protein) expressed in S. islandicus (Saccharolobus islandicus REY15A)", "test": "co-IP; in vivo pull-down: Flag-ArnB or Flag-ArnE precipitated with anti-Flag magnetic beads from sonicated S. islandicus cell extract in buffer A (50 mM Tris-HCl pH 7.5, 150 mM NaCl, 5% glycerol); SisArnA detected by Western blot with anti-SisArnA; cells untreated or treated with 3 µM NQO for 6 h"}, "[2]": {"target": "Flag-tagged SisArnE (vWA domain protein SisvWA2) expressed in S. islandicus (Saccharolobus islandicus REY15A)", "test": "co-IP; in vivo pull-down: Flag-ArnB or Flag-ArnE precipitated with anti-Flag magnetic beads from sonicated S. islandicus cell extract in buffer A (50 mM Tris-HCl pH 7.5, 150 mM NaCl, 5% glycerol); SisArnA detected by Western blot with anti-SisArnA; cells untreated or treated with 3 µM NQO for 6 h"}},
  "data": [
    {"substance": "SisArnA, FHA domain-containing protein from Saccharolobus islandicus REY15A (endogenous) (natural protein)", "values": [
      {"measurement": "amount of SisArnA pulled down after NQO treatment, percent of the untreated sample", "setting": "[1]", "value": 40, "unit": "%"},
      {"measurement": "fold of the SisArnA-ArnE interaction, normal growth conditions", "setting": "[1]", "value": 9, "unit": "fold"},
      {"measurement": "amount of SisArnA pulled down after NQO treatment, fold of the untreated sample", "setting": "[2]", "value": 3, "unit": "fold"}
    ]}
  ]
}
